# Assay results published in the nanobody polyreactivity screen of Harvey et al. (2022).
# Assay: yeast display, Sf9 membrane polyspecificity reagent, FACS + sequencing; frameworks hold sequencing errors
# In short: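 In a synthetic yeast display library (Saccharomyces cerevisiae BJ5465), nanobody expression was induced with galactose for 36–48 hours. FACS gates were set low and high (top ~1%) using anti-HA fluorescence for expression and streptavidin fluorescence for binding of the Sf9 membrane reagent. Each polyreactivity label is drawn from the gate of origin.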
row,Sequence,polyreactivity (PSR sort gate)
1,QVQLVESGGGLVQAGGSLRLSCAASGRTYGGNAMGWYRQAPGKERELVAAITVSAGHTYYADSVKGRFTISRDNAKNTVYLQMKSLKPEDTAVYYCAKVYHWYYSYDYWGQGTQVTVSS,low polyreactivity
2,QVQLVESGGGLVQAGGSLRLSCAASGRTYGNYAMGWSRPAPGKERELVAGITYRSGRTYYADSVKGRFTISRDNAKITFYLQMNSLKPEDTAVYYCAAASYYLTPKHDYWGQGTQVTVSW,high polyreactivity
3,QVQLVESGGGLVQAGGSLRLSCAASGRTYGWYAMGWYRQAPGKERELVAAIRSSGGRTHYADSVKGRFTISRDNAKNTVYLQMNSLKPEDTAVYYCAARYSAAYYWGQGTQVTVSS,high polyreactivity
4,QVQLVESGGGLVQAGGSLRLSCAASGRTYINNAMGWYRQAPGKERELVAAISRRGGSTYYADSVKGRFTISRDNAKNTVYLQMNSLKPEDTAVSYCAADAFRSQRPYTYDYWGQGTQVTVSS,high polyreactivity
5,QVQLVESGGGLVQAGGSLRLSCAASGRTYKINAMGCYRQAPGKERELVASISRTGGTTYYADSVKGRFTNSRDNAKNTVYLQMNSLNPEDTAVYYCAVSDFGLLDCLTIYDEYDYWGQGTQVTVSS,high polyreactivity
6,QVQLVESGGGLVQAGGSLRLSCAASGRTYNPYAMGWYRQAPGKERELVAVISSIGGSTYADSVTGRFTISRDNAKNTVYLQMNSLKTEDTAVFYCNRATFGQWGGDYWGQGTQVTVSS,high polyreactivity
7,QVQLVESGGGLVQAGGSLRLSCAASGRTYRSYTMGWYRQAPGKERELVASISRRGGSTYYADSVKGRFTISRDNAKNTVYLQMNSLKPEDTAVYYCAAVNVYDAYEYWGQGTQVTVSS,high polyreactivity
8,QVQLVESGGGLVQAGGSLRLSCAASGRTYSRNAMGWYRQAPGKERELVATISRGGGITFYADSVKGRFTISRDNAKNTVYLQMNSLKPEDTAVYYCAAQYYYWTRRPGDYWGQGTQVTVSS,high polyreactivity
9,QVQLVESGGGLVQAGGSLRLSCAASGRTYVVKAMGWYRQAPGKERELVAAIIRGNTYYADSVKGRFTISRDNAKNTVYLQMNSLKPEDTAVYYCAARYSPYKYYYWGQGTQVTVSS,high polyreactivity
10,QVQLVESGGGLVQAGGSLRLSCAASGRTYYGNAMGWYRQAPGKERELVAAITSGGGSTRYADSVKGRFTISRDNAKNTVYLQMNSLKPEDTAVYYCNATLGNFGYRRYSGHTRYYYWGQGTQVTVSS,high polyreactivity
11,QVQLVESGGGLVQAGGSLRLSCAASGRVYAMGWYRQAPGKERELVAPITTSGGRTYYADSVKGRFTISRDNAKNSVYCQMNSLKPEDTAVYYCNKPGYPPSDMYYWGQGTQVNVSS,low polyreactivity
12,QVQLVESGGGLVQAGGSLRLSCAASGSFINRYAMGWYRQAPGKERELVAAITQSGGRTYYADSVKGRFTISRDNAKNTVYLQMNSLKPEDTAVYYCNAVRWYLYDYWGQGTQVTVSS,high polyreactivity
13,QVQLVESGGGLVQAGGSLRLSCAASGSICDRNAMGWYRQAPGKERELVANITWSGVSTYYADSVKGRFTMSRDNAKNTVYLQMNSLKPDDTAVYYCNADYSYRHWYDPGQYGQAMGYWGQGTQVTVSS,low polyreactivity
14,QVQLVESGGGLVQAGGSLRLSCAASGSICGPYALGWYRQAPGKERELVAAITWTGGRTYYADSVKGRFTISRDNAKNTVYFQMNSLKPEDTAVYYCAADYSPSTWYLYYTLYYYWGQGTQVTVSS,low polyreactivity
15,QVQLVESGGGLVQAGGSLRLSCAASGSIFAANAMGWYRQAHGKERELVAAISWSGGYTYADSVKGRFTISRDNAKNTVYLQMKSLKPEDTAFYYCAADLWSQYKFGYWGQGTLVTVSS,low polyreactivity
16,QVQLVESGGGLVQAGGSLRLSCAASGSIFAANAMGWYRQAPGKERELVAAISWSGGSTYADSVKGRFTISRDNAKNTVYLQMNSLKPEDTAVYYCNAYVYVGTGRGYDTLDYWGQGTQVTVSS,low polyreactivity

row,Sequence,polyreactivity (PSR sort gate)
1,QVQLVESGGGLVQAGGSLRLSCAASGSIFAANAMGWYRQAPGKERELVAAITSGGSTDYADSVKGRFTISRDNAKNTVYLEMNSLKPEDTAVYYCAKGYVPYAIFDYWGQGTQVTVSS,low polyreactivity
2,QVQLVESGGGLVQAGGSLRLSCAASGSIFAAYTMGWYRQAPGKERELVAAISVSTVSTYYADSVKGRFTISRDNAKISVYLQMNSLKPEDTAVYYCNADSTTQDYDYWGQGTQVTVSS,low polyreactivity
3,QVQLVESGGGLVQAGGSLRLSCAASGSIFAAYTMGWYRQAPGKERELVAAISVSTVSTYYADSVKGRFTISRDNAKNTVYIQMNSLKPEDTAVYYCNADATDSYPEKDEHDSWGQGTQVTVSS,low polyreactivity
4,QVQLVESGGGLVQAGGSLRLSCAASGSIFADNAMGWYRQAPGKEMELVADISWSGGRTYYADSVKGRFTISRDNAKNTVYLQMNSLKPEDTAVYYCAARYRDYRAGFDYWGQGTQLTVSS,high polyreactivity
5,QVQLVESGGGLVQAGGSLRLSCAASGSIFADYAMGWYRQAPGKERELVAVITSGGRTNYADSVKGRFTISRDNAKNTVYLQMNSLKPEDTAVYYCDTRRYRYYAYRNYYYWGQGTQVTVSS,high polyreactivity
6,QVQLVESGGGLVQAGGSLRLSCAASGSIFADYAMGWYRQAPGKERELVAVITSSGGSTNYADSVKGRFTISRDNAKNTVYLQMNSLKPEDTAVYYCNRRPYPSYDYWGQGTQVTVSS,low polyreactivity
7,QVQLVESGGGLVQAGGSLRLSCAASGSIFADYVMGWYRQAPGKERELVAAITRRGRTYYSDSVKGRFTISRDNAMNTVYIQMNILKPEDSAVYYCDKVASGKIDSWGQGTQVTVSS,low polyreactivity
8,QVQLVESGGGLVQAGGSLRLSCAASGSIFAFYTMGWYRQAPGKERELVATITRSGRTNYADSVKGRFTISRDNAKNTVYLQMNSLKPEDTAVYYCAAGYLSGNYARYGYWGQGTQVTVSS,high polyreactivity
9,QVQLVESGGGLVQAGGSLRLSCAASGSIFAGYAIGWYRQAPGKERELVAAISWSGGGTYYADSVKGRFTISRDNAKNTVYLQMNSLKPEDTAVYYCNAYGYRHRGNGYWGQGTQVTVSS,high polyreactivity
10,QVQLVESGGGLVQAGGSLRLSCAASGSIFAGYAMGWYRQAPGKERELVATITSSSRTNYADSVKGRFTISRDNAKNTVYLQMNSLKPEDTAVYYCAARGRYVIDGYRMYYWGQGTQVTVSS,high polyreactivity
11,QVQLVESGGGLVQAGGSLRLSCAASGSIFAGYAMGWYRQAPGNERELVAAISNRGSSTNYADSVKGRFTISRDNAKITVYLQMNSLKPEDTAVYYCAVGPIRKYDYWGQGTQVTVSS,high polyreactivity
12,QVQLVESGGGLVQAGGSLRLSCAASGSIFALYAMGWYRQAPGKERELVAAISWRAGGTYYADSVKGRFTISRDNAKNTVYLQMNSLKPEDTAVYYCAAEISLYYYGDYEYWGVGTQVTVSS,high polyreactivity
13,QVQLVESGGGLVQAGGSLRLSCAASGSIFALYTMGWYRPAPGKERELVAAISRRGGNTYYADSVKGRFTISRDNAKNTVYLQMNSLKPEDTAVYYCNADRLRSTHDYWGQGTQVTVSS,high polyreactivity
14,QVQLVESGGGLVQAGGSLRLSCAASGSIFAPYAMGWYRQAPGKERELVAAINNNGGRTYYADSVKGRFTISRDNAKNTVYLQMNSLKPEDTAVYYCAKELGYDWYYRPYGYWGQGTQVTVSS,low polyreactivity
15,QVQLVESGGGLVQAGGSLRLSCAASGSIFAPYAMGWYRQAPGKERELVAAISTGGRTHYADSVKGRFTISRDNAKNTVYLHMNSLKPEDTAVYYCAAARPTAGVIRPHYYWGQGTQVTVSS,high polyreactivity
16,QVQLVESGGGLVQAGGSLRLSCAASGSIFAPYAMGWYRQAPGKEREVVAAITSGVGSTYYADSVKGRFTISRDNAKNTVYLQMNSLKPEDTAVYYCAADSSYLTYWEYDYWGQGSQVTVSS,low polyreactivity
